Test [1] addresses TOPBP1 BRCT0-1-2, 1-290 (UniProt Q92547). Nature of the test: biotin-peptide pull-down, Coomassie SDS-PAGE. The note with it: reference: unphosphorylated T1260 peptide; sites T1260.
In a further test the target is TOPBP1 (UniProt Q92547). Nature of the test: GFP-Trap co-IP, western blot. As to conditions: reference: eGFP-SLX4 wild type; sites T1260. (A western blot detects proteins with antibodies after separation by electrophoresis.)
For test [2], the target named is TOPBP1 BRCT0-1-2, 1-290 (UniProt Q92547). Kind of test: fluorescence polarisation titration. As to conditions: reference: pT1260 peptide, untreated; sites T1260.

Take “SLX4 1247-1267 (from UniProt Q8IY92) synthetic pT1260 peptide”: the “binding against the reference” value with TOPBP1 BRCT0-1-2, 1-290 [1] is recorded as “gained”. As for “SLX4 (from UniProt Q8IY92) eGFP-SLX4 T1260A”, the “binding against the reference” value with TOPBP1 is on record as “lost”. For “SLX4 1253-1267 (from UniProt Q8IY92) pT1260 peptide treated with lambda phosphatase”, the “binding against the reference” value with TOPBP1 BRCT0-1-2, 1-290 [2] was “lost”.

The values are drawn from publication PMC12661054, “The CIP2A-TOPBP1 axis facilitates mitotic DNA repair via MiDAS and MMEJ” (Nature Communications, 2025).
